Results as given in patent publication US20140287433A1.

Key:
[1] = molecular target: GST-Synaptotagmin II (SytII) fusion protein (rat)
[2] = molecular target: VAMPtide (o-Abz/Dnp) (List Biological Laboratories, Inc.); assay: cell-based or functional assay
[3] = molecular target: PL150 (Pharmaleads): [(Ac-60-94)VAMP](Pya74,Nop77); assay: cell-based or functional assay

| Substance | increase of binding at pH 5.2 against pH 7.2 [1] | limit of detection of the toxin by VAMPtide cleavage [2] | lowest toxin concentration detected by substrate cleavage (fluorescence) [2] | lowest toxin concentration detected by substrate cleavage (fluorescence) [3] |
| --- | --- | --- | --- | --- |
| purified 150 kDa BoNT/B from C. botulinum strain Okra B (Metabiologics Inc.) | 100% | 2 nM | 2 nM | 10 pM |
| BoNT/B complex from C. botulinum strain Okra B (Metabiologics Inc.) (from UniProt B1INP5 2-1291) | – | 5 nM | – | – |
